This note sets out measurements from doi:10.1101/2024.11.10.622873 (bioRxiv, 2024).

Experiment in all cases: BLI
(BLI is a label-free optical method that tracks binding on a fibre tip over time.)

For assay [1], the target named is COP-1, synthetic antibody fragment (sFab), with C-terminal histidine tag.
Assay [2] has the same target. This is another data set of the same source.
For assay [3], the target named is human junctional adhesion molecule-A (Homo sapiens, UniProt Q9Y624).
Assay [4] has as its target human occludin (Homo sapiens, UniProt Q16625).
For assay [5], the target named is human claudin-5 (human, UniProt O00501).
In assay [6] the target is human claudin-6 (human, UniProt P56747).
Assay [7] concerns the target C-terminal domain of Clostridium perfringens enterotoxin, in solution (Clostridium perfringens, UniProt P01558).
Assay [8] concerns the target human claudin-1 (human, UniProt O95832).
Assay [9] deals with human claudin-3 (human, UniProt O15551).
The target in assay [10] is human claudin-18 splice variant 18.1 (human, UniProt P56856).
The target in assay [11] is murine claudin-15 (mouse, UniProt Q9Z0S5).
Assay [12] deals with human claudin-19 (human, UniProt Q8N6F1).
Assay [13] concerns the target human claudin-17 (human, UniProt P56750).
Assay [14] addresses human claudin-18 splice variant 18.2 (human, UniProt P56856-2).
The target of assay [15] is human claudin-9 (human, UniProt O95484).

Read-outs that look alike come from different tables or passages of the source.

human claudin-9, sequence (O95484 whole entry): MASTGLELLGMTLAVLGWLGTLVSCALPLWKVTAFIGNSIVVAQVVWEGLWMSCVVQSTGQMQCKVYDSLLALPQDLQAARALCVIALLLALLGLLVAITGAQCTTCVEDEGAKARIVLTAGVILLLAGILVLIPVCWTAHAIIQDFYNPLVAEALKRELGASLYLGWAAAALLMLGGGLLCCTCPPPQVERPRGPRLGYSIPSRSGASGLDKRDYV
murine claudin-15, sequence (Q9Z0S5 whole entry): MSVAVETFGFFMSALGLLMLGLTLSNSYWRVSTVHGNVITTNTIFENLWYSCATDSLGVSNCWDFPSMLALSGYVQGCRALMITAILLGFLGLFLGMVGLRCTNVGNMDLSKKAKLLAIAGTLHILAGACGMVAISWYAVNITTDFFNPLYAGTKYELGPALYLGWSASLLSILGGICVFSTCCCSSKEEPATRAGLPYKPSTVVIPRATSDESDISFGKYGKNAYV
human claudin-6, sequence (P56747 whole entry, the tested form may be a part): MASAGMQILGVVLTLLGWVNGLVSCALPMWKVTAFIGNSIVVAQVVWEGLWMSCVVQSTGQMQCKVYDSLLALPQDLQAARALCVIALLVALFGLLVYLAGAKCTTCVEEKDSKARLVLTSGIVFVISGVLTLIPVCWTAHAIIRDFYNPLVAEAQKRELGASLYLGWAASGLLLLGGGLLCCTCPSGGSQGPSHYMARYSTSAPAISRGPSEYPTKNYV
human claudin-1, sequence (O95832 whole entry): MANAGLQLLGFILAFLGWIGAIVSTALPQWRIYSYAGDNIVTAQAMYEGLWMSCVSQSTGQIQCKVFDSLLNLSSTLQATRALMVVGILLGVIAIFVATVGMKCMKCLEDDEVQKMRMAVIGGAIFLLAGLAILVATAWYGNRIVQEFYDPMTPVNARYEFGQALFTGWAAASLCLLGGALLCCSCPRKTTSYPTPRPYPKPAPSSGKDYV
human claudin-17, sequence (P56750 whole entry, canonical isoform): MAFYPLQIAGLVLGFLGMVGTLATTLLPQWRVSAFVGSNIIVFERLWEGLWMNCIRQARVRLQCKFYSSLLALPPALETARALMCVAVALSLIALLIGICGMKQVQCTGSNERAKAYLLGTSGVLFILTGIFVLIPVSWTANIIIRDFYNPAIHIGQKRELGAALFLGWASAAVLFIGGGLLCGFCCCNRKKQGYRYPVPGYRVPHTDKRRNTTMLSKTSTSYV
human claudin-5, sequence (O00501 whole entry): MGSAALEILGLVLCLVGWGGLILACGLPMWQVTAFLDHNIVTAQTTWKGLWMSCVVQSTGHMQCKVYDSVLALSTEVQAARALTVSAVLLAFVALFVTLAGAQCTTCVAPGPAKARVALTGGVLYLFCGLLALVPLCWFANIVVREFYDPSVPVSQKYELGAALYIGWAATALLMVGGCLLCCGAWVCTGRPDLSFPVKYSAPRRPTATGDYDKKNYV
C-terminal domain of Clostridium perfringens enterotoxin, in solution, sequence (P01558 198-319): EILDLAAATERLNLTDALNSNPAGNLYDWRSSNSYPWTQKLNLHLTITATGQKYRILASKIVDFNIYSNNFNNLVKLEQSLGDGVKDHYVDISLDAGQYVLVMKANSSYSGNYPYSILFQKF
human claudin-3, sequence (O15551 whole entry, canonical isoform): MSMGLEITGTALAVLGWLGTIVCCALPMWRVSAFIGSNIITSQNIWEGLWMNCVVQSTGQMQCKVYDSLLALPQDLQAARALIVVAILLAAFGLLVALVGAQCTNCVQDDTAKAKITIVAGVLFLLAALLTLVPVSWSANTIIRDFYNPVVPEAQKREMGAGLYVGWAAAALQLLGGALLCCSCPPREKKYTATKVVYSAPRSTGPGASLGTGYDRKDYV
human claudin-19, sequence (Q8N6F1 whole entry): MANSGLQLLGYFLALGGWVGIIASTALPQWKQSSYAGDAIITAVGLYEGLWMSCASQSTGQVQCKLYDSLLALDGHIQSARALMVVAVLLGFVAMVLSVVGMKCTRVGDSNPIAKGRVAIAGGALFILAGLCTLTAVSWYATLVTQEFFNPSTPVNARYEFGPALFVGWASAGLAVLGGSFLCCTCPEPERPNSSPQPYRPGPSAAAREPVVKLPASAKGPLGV

Broadly, the Kd is the free concentration of one partner at which half of the binding sites on the other are occupied at equilibrium, for simple one-to-one binding. A lower Kd goes with higher affinity. With “human claudin-4 (from UniProt O14493) (natural protein)”, the Kd was determined as 70.6 nM in [1] and 106 nM in [2]. In [2], this molecule returned a t1/2 of the complex of 30 min.

B1: COP-1, synthetic antibody fragment (sFab), with C-terminal histidine tag (Fab, V domains shown)
VH: EVQLVESGGGLVQPGGSLRLSCAASGFNFSSSYIHWVRQAPGKGLEWVASISSSSGSTSYADSVKGRFTISADTSKNTAYLQMNSLRAEDTAVYYCARWFHPWWWWEYLFRGAIDYWGQGTLVTVSS
VL: DIQMTQSPSSLSASVGDRVTITCRASQSVSSAVAWYQQKPGKAPKLLIYSASSLYSGVPSRFSGSRSGTDFTLTISSLQPEDFATYYCQQSSSSLITFGQGTKVEIK
Regarding B1, the binding result in [3] was “no binding (tested: 500 nM)”; in [4], “no binding (tested: 500 nM)”; in [7], “no binding”. The dissociation constant (Kd) was 75.8 nM in assay [5]; 59.5 nM in assay [6]; 61.3 nM in assay [8]; 57.9 nM in assay [9]; 92.4 nM in assay [10]; 59 nM in assay [11]. Also, the Kd came to 62.2 nM in [12], 80.2 nM in [13], 66.4 nM in [14] and 66 nM in [15].
